The target of assay [1] is Notch on primary rat oligodendrocytes and oligodendrocyte precursor cells (rat, UniProt Q07008 19-2531). In words: cell-based or functional assay.
Assay [2] addresses myc-tagged full-length mouse Notch1 on transfected OLN cells (mouse, UniProt Q01705 19-2531). In words: cell-based or functional assay.
The target in another assay is T1, Notch2 on OLN-93 cells (rat, UniProt Q9QW30 26-2471).
T1 construct: whole, on cells; also called OLN cells
The experiment in a line: OLN-93 cell adhesion to F3-Fc substrate with antibody blockade. Here is the method: This was carried out as previously described (Xiao et al, 1996). Briefly, 35 mm tissue culture petri dishes (Becton Dickinson) were coated with methanol solubilized nitrocellulose (Lagenaur and Lemon, 1987) and air-dried under a sterile hood.

Assay [3] concerns the target T2, F3 on F3-transfected CHO cells (UniProt P12960 21-1001).
T2 construct: whole, on cells; also called F3-CHO; F3-expressing CHO cells
T2 sequence (looked up): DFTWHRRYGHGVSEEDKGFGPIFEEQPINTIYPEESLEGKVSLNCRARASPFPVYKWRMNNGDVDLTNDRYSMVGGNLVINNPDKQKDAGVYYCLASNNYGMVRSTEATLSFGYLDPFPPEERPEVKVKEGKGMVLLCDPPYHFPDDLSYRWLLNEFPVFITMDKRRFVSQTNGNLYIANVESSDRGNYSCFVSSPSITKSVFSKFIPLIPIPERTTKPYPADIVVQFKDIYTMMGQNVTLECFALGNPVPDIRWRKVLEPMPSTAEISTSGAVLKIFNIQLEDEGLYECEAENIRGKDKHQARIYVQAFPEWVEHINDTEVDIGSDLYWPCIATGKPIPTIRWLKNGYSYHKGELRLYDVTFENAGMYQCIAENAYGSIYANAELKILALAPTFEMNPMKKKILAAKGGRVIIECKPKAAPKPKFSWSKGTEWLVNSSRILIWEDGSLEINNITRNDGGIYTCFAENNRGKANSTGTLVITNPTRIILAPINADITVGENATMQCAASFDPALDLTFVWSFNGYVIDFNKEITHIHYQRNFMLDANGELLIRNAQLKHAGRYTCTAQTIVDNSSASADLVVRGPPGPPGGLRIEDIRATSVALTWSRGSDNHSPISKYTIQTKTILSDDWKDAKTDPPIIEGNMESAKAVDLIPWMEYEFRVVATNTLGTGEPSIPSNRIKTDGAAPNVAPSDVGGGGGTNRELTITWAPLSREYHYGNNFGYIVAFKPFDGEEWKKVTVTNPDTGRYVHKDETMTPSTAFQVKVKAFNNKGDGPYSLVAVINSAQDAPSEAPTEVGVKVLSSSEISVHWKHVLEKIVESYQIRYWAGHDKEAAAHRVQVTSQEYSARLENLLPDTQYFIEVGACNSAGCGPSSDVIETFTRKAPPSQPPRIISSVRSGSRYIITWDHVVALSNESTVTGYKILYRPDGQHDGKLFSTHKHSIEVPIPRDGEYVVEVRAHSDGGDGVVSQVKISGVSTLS
The experiment in a line: cell adhesion assay, F3-CHO cells on coated substrate.

Assay [4] concerns the target T3, Caspr (native, adult rat brain membrane extracts) (rat, UniProt P97846 21-1381).
T3 construct: also called Paranodin; contactin-associated protein
T3 sequence (looked up): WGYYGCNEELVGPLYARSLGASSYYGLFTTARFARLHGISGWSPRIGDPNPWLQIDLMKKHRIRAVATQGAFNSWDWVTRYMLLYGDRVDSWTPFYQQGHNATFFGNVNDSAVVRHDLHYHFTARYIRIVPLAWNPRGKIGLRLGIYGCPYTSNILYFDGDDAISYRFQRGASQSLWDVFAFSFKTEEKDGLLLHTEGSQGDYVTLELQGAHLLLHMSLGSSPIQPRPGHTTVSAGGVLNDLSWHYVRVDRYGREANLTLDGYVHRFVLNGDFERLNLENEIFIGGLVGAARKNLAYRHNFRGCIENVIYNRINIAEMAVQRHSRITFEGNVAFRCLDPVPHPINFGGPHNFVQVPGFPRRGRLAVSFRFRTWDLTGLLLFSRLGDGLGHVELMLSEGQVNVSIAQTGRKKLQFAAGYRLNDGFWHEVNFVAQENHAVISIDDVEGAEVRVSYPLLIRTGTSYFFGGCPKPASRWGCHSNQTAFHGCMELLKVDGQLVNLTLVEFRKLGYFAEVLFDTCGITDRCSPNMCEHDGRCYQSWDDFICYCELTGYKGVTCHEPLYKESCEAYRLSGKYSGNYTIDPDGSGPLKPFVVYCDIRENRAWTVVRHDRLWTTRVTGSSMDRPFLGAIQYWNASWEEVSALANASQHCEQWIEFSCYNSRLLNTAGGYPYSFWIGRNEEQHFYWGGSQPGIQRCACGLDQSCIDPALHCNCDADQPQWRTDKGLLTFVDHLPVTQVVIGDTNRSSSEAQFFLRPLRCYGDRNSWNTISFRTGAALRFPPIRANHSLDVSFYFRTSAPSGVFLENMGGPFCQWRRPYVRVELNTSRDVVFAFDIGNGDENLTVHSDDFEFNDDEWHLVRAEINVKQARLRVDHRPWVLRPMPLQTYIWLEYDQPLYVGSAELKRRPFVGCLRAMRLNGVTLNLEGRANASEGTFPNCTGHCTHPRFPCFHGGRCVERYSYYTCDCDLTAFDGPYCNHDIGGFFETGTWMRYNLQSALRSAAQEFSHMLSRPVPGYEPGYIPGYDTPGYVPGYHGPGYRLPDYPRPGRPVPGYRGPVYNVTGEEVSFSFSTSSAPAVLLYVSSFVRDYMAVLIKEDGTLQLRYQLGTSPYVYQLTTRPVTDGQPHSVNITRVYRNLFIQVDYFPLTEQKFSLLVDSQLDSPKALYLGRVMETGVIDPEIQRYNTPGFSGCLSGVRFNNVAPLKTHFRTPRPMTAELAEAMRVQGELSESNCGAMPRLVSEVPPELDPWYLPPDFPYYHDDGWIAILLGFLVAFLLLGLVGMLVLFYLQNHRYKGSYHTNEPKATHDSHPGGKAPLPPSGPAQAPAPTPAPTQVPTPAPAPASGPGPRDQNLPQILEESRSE
The experiment in a line: co-immunoprecipitation from adult rat brain membrane extracts, Western blot. For orientation: In western blotting, separated proteins are transferred to a membrane and probed.
Experimental: Briefly, brain tissue was homogenized in ice-cold homogenizing buffer (320 mM sucrose, 10 mM Tris-HCl pH7.4, 1 mM NaHCO_3 pH7.4, 1 mM MgCl_2) supplemented with 1% protease inhibitor cocktail (Amersham), and subsequently centrifuged at 5,000 g for 15 min. The supernatant was collected and spun at 60,000 g (Beckman ultracentrifuge) for 60 min at 4° C. Pellets were then dissolved in a lysis buffer (10 mM Tris-HCl pH9, 150 mM NaCl, 0.5% Triton X-100, 1% sodium deoxycholate (DOC), 0.5% SDS, 2 mM EDTA, and 1% protease inhibitor cocktail) for subsequent experiments.

Notch on primary rat oligodendrocytes and oligodendrocyte precursor cells, sequence (Q07008 19-2531): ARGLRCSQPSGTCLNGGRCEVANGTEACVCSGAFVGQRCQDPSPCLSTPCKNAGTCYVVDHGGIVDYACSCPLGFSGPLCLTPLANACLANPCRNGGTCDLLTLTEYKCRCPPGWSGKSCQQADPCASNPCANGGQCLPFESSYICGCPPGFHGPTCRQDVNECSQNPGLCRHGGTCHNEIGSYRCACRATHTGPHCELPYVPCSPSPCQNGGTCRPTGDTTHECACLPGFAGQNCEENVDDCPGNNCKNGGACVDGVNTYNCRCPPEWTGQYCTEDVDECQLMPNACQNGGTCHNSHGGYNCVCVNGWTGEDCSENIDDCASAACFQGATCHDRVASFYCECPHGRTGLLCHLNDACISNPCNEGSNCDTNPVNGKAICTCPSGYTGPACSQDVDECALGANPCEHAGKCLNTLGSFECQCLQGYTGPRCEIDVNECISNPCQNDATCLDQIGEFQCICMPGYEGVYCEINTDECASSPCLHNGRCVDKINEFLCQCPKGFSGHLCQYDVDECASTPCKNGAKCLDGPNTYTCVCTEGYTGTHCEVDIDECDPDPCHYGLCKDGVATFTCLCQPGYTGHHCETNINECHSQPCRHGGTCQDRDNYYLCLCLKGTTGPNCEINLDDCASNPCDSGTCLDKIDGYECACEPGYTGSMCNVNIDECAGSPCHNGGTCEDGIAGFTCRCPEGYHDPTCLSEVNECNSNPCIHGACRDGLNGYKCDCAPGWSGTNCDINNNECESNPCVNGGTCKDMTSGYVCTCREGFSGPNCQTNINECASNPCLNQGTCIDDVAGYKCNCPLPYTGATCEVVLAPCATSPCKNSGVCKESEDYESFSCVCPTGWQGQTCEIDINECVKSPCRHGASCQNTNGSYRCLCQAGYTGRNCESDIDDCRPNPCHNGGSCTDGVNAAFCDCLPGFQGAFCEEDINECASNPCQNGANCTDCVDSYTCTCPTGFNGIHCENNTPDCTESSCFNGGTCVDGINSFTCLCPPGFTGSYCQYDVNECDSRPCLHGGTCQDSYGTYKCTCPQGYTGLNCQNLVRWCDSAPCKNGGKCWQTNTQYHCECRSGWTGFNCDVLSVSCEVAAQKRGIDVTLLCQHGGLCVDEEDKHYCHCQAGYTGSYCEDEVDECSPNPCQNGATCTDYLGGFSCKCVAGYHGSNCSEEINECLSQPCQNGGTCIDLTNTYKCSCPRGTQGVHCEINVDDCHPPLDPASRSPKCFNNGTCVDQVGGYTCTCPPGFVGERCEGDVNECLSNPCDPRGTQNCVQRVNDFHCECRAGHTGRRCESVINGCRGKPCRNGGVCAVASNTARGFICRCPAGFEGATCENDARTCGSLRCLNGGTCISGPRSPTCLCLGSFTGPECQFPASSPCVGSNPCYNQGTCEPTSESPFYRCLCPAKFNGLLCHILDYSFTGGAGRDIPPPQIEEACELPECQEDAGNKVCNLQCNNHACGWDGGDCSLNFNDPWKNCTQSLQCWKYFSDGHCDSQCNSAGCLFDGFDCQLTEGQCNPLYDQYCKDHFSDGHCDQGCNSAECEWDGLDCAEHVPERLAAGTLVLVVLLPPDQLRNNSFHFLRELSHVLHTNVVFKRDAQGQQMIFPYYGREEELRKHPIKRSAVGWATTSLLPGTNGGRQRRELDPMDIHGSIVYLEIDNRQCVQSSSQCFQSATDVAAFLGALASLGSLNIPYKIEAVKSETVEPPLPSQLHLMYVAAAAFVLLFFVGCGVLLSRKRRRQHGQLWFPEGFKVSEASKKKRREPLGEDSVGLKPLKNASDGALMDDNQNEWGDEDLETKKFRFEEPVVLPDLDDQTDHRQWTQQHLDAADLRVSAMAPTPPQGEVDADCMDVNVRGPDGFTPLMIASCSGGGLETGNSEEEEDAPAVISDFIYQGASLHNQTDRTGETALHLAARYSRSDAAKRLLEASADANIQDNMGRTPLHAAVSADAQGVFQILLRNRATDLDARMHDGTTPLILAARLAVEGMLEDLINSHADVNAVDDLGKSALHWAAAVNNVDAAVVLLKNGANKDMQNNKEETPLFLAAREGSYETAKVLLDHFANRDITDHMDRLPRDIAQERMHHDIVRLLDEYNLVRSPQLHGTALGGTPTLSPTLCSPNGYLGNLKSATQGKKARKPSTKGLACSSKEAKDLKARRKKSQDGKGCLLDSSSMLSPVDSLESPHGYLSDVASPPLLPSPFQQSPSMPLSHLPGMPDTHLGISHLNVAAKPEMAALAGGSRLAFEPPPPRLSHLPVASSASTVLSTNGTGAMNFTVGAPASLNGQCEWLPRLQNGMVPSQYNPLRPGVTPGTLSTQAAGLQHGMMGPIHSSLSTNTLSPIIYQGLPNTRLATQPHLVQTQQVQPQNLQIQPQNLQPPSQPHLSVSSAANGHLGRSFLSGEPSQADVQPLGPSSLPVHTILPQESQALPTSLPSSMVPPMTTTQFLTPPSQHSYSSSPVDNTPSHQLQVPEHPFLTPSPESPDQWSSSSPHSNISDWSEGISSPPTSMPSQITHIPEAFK
T1 sequence (Q9QW30 26-2471): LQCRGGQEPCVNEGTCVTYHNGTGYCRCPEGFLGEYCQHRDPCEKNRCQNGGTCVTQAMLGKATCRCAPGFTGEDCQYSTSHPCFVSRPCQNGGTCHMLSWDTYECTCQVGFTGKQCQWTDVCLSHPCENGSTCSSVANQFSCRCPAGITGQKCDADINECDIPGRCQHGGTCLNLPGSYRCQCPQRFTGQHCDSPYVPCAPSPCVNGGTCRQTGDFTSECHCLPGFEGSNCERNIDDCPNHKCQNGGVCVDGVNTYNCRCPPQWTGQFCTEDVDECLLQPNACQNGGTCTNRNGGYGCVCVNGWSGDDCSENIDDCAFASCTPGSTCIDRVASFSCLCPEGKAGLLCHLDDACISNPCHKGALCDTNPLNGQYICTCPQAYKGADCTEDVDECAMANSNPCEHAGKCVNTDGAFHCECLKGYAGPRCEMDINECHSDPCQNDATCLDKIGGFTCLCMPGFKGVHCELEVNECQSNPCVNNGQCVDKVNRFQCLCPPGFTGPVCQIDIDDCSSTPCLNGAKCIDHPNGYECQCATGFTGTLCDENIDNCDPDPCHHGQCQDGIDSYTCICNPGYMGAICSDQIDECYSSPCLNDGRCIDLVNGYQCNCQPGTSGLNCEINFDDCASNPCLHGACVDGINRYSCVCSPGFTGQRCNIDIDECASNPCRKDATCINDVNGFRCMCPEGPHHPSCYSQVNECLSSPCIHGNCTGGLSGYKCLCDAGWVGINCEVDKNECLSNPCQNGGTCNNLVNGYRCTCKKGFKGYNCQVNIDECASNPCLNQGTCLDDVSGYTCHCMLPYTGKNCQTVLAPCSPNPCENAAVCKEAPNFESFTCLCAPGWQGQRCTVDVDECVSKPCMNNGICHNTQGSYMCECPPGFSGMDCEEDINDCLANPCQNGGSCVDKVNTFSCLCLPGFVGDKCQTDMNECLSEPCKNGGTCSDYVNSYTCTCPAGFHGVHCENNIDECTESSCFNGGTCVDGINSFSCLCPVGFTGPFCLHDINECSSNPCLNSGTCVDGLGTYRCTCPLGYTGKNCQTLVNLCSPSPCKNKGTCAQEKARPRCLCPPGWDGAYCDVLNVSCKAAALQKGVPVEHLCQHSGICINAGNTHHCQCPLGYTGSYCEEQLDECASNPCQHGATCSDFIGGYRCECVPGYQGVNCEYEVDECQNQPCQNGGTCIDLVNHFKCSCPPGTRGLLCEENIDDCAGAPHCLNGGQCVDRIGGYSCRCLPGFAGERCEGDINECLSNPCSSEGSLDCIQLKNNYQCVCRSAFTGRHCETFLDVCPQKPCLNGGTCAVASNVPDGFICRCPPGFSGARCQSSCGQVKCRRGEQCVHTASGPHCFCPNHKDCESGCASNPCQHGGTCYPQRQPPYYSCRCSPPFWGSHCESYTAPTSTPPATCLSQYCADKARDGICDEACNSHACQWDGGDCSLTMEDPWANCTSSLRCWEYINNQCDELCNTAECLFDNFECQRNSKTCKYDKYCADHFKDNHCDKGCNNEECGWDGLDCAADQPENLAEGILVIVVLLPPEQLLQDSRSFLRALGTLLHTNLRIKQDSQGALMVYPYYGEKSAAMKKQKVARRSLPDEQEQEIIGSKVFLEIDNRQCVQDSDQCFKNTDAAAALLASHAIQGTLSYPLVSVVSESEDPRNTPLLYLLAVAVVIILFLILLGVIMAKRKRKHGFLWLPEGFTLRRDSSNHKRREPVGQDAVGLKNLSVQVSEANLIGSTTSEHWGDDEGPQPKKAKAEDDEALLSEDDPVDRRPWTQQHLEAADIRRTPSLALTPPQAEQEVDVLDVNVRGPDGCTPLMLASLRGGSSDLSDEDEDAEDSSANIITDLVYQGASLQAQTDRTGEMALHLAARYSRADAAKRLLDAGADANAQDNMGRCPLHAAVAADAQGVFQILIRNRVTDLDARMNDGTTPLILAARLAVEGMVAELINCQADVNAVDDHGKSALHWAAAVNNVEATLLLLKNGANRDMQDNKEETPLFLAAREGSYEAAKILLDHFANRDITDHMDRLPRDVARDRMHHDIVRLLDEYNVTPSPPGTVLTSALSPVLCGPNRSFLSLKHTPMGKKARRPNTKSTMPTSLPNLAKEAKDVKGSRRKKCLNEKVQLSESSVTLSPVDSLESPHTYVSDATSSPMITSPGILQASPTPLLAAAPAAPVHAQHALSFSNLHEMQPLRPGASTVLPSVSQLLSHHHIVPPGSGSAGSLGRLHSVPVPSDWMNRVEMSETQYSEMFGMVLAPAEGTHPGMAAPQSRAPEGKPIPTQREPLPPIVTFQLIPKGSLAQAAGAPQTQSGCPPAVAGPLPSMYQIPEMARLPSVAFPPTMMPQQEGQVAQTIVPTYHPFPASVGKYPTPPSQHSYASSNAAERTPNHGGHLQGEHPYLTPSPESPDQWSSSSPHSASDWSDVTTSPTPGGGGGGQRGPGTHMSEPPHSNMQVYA

B1: NB-3-His (ligand, rat)
chain: ESRFTRPIFIQEPQDVIFPLDLSRSEIILSCTASGYPSPHYRWKQNGTDIDFSMTYHYRLDGGSLAISSPRTDQDIGIYQCLATNPVGTILSRKAKLQFAYIEDFETKSRSTVSVREGQGVVLLCGPPPHFGELSYDWTFNDNPLYVQEDKRRFVSQNTGNLYIAKVEPSDVGNYTCFVTNKEAHRSVQGPPTPLVQRTDGVMGEYEPKIEVRFPETIQAAKDSSVKLECFALGNPVPDISWRRLDGSPMPGKVKYSNSQATLEIPKFQQEDEGFYECVAGNLRGRNLAKGQLIFYAPPEWEQKIQNTYLSIYDSLFWECKASGNPNPSYTWLKNGERLNTEERIQTENGTLIITMLNVSDSGIYQCAAENKYQTIYANAELRVLASAPDFSKNPIKKISVVQVGGDISIECKPNAFPKASISWKRGTENLKQSKRVFFLEDGSLKICNVTRSDAGSYTCVATNQFGNGKSSGSLIVKERTVITVPPSKMDVTVGESIVLPCQVSHDPTMEVLFVWYFNGDVIDLKKGVAHFERIGGESVGDLMIRNIQLGHSGKYLCTVQTTLERLSAVADIIVRGPPGPPEDVKVEHISSTTSQLSWRPGPDNNSPIQIFTIQTRTPFSVGWQAVATVPEILNGQTYNATVIGLSPWVEYEFRVVAGNNIGIGEPSKPSELLRTKASIPNVAPVNINGGGGSRSELVITWEPIPEELQNGEGFGYIIMFRPVGSTTWMKEKVALVESSKFIYRNESIMPLSPFEVKVGVYNNEGEGSLSTVSIVYSGEDEPRLAPRGTSVQSFSASDMEVSWNAIAWNRNTGRVLGYEVLYWTDNSKESMIGKIRVSGNVTTKNITGLRANTIYFASVRAYNTAGTGPSSPPVNVTTKKSPPSQPPANIAWKLSNSKLCLNWEHVKTMENESEVLGYKILYRQNRQSKTHVLETNNTSAELLVPFEEDYLIEIRTVSDGGDGSSSEEIRIPKMSSLSSHHHHHH
Take B1: the “MAG mRNA, real-time RT-PCR, primary oligodendrocytes on protein substrate against BSA” value in assay [1] was ~8 fold.

B2: F3-Fc (Fc fusion, mouse, UniProt P12960 21-1001, looked up)
chain: DFTWHRRYGHGVSEEDKGFGPIFEEQPINTIYPEESLEGKVSLNCRARASPFPVYKWRMNNGDVDLTNDRYSMVGGNLVINNPDKQKDAGVYYCLASNNYGMVRSTEATLSFGYLDPFPPEERPEVKVKEGKGMVLLCDPPYHFPDDLSYRWLLNEFPVFITMDKRRFVSQTNGNLYIANVESSDRGNYSCFVSSPSITKSVFSKFIPLIPIPERTTKPYPADIVVQFKDIYTMMGQNVTLECFALGNPVPDIRWRKVLEPMPSTAEISTSGAVLKIFNIQLEDEGLYECEAENIRGKDKHQARIYVQAFPEWVEHINDTEVDIGSDLYWPCIATGKPIPTIRWLKNGYSYHKGELRLYDVTFENAGMYQCIAENAYGSIYANAELKILALAPTFEMNPMKKKILAAKGGRVIIECKPKAAPKPKFSWSKGTEWLVNSSRILIWEDGSLEINNITRNDGGIYTCFAENNRGKANSTGTLVITNPTRIILAPINADITVGENATMQCAASFDPALDLTFVWSFNGYVIDFNKEITHIHYQRNFMLDANGELLIRNAQLKHAGRYTCTAQTIVDNSSASADLVVRGPPGPPGGLRIEDIRATSVALTWSRGSDNHSPISKYTIQTKTILSDDWKDAKTDPPIIEGNMESAKAVDLIPWMEYEFRVVATNTLGTGEPSIPSNRIKTDGAAPNVAPSDVGGGGGTNRELTITWAPLSREYHYGNNFGYIVAFKPFDGEEWKKVTVTNPDTGRYVHKDETMTPSTAFQVKVKAFNNKGDGPYSLVAVINSAQDAPSEAPTEVGVKVLSSSEISVHWKHVLEKIVESYQIRYWAGHDKEAAAHRVQVTSQEYSARLENLLPDTQYFIEVGACNSAGCGPSSDVIETFTRKAPPSQPPRIISSVRSGSRYIITWDHVVALSNESTVTGYKILYRPDGQHDGKLFSTHKHSIEVPIPRDGEYVVEVRAHSDGGDGVVSQVKISGVSTLS
notes: domain: F3 without the GPI-anchor; also called F3 substrate; soluble F3; not shown: human IgG Fc
Consider B2, for which, in assay [1], the “MAG mRNA, real-time RT-PCR, primary oligodendrocytes on protein substrate against BSA” value is ~8 fold and the “MAG transcripts, real-time PCR, primary OLs on F3 substrate against BSA” value is ~16 fold. The “nuclear NICD staining intensity” value in assay [2] was 2 fold. In addition, in the assay with Notch2 on OLN-93 cells, the binding result is listed as “binds”.

B3: GST-Nogo-66 (other, UniProt Q9NQC3 1055-1120, looked up)
chain: RIYKGVIQAIQKSDEGHPFRAYLESEVAISEELVQKYSNSALGHVNCTIKELRRLFLVDDLVDSLK
notes: also called Nogo-66-GST; recombinant GST-Nogo-66 protein; not shown: glutathione S-transferase (GST) encoded by vector pGEX-KG
As to B3, in assay [3], the binding result was “no binding”.

B4: NB-3 (native, rat brain) (ligand, UniProt P97528 20-999, looked up)
chain: ESRFTRPIFIQEPQDVIFPLDLSRSEIILSCTASGYPSPHYRWKQNGTDIDFSMTYHYRLDGGSLAISSPRTDQDIGIYQCLATNPVGTILSRKAKLQFAYIEDFETKSRSTVSVREGQGVVLLCGPPPHFGELSYDWTFNDNPLYVQEDKRRFVSQNTGNLYIAKVEPSDVGNYTCFVTNKEAHRSVQGPPTPLVQRTDGVMGEYEPKIEVRFPETIQAAKDSSVKLECFALGNPVPDISWRRLDGSPMPGKVKYSNSQATLEIPKFQQEDEGFYECVAGNLRGRNLAKGQLIFYAPPEWEQKIQNTYLSIYDSLFWECKASGNPNPSYTWLKNGERLNTEERIQTENGTLIITMLNVSDSGIYQCAAENKYQTIYANAELRVLASAPDFSKNPIKKISVVQVGGDISIECKPNAFPKASISWKRGTENLKQSKRVFFLEDGSLKICNVTRSDAGSYTCVATNQFGNGKSSGSLIVKERTVITVPPSKMDVTVGESIVLPCQVSHDPTMEVLFVWYFNGDVIDLKKGVAHFERIGGESVGDLMIRNIQLGHSGKYLCTVQTTLERLSAVADIIVRGPPGPPEDVKVEHISSTTSQLSWRPGPDNNSPIQIFTIQTRTPFSVGWQAVATVPEILNGQTYNATVIGLSPWVEYEFRVVAGNNIGIGEPSKPSELLRTKASIPNVAPVNINGGGGSRSELVITWEPIPEELQNGEGFGYIIMFRPVGSTTWMKEKVALVESSKFIYRNESIMPLSPFEVKVGVYNNEGEGSLSTVSIVYSGEDEPRLAPRGTSVQSFSASDMEVSWNAIAWNRNTGRVLGYEVLYWTDNSKESMIGKIRVSGNVTTKNITGLRANTIYFASVRAYNTAGTGPSSPPVNVTTKKSPPSQPPANIAWKLSNSKLCLNWEHVKTMENESEVLGYKILYRQNRQSKTHVLETNNTSAELLVPFEEDYLIEIRTVSDGGDGSSSEEIRIPKMSSLSS
On to B4, for which, in assay [4], the binding result is given as “no binding”.

These data come from US8273855 (JIANGSU NOVAVAC BIO TEC, dated 2012).
